Reference: patent US20240116985A1 (published 2024)
Starred links: 1 amine or outer side, 2 acyl side, 3 side chain; linkers in the order of their positions; H or OH if unused. Positions of bridges follow the written chain, without caps; N, C: chain ends. Non-standard residues stand in square brackets, D forms with d. Primed or numbered codes have the meaning given here. B5(4) = 2,2-bis(4-pentenyl)glycine = 2-amino-2-(pent-4-en-1-yl)hept-6-enoic acid (stitching residue), C=CCCCC(CCCC=C)(N[*:1])C(=O)[*:2]; B5(5) = 2,2-bis(4-pentenyl)glycine, 2-amino-2-(pent-4-en-1-yl)hept-6-enoic acid (stitching residue), C=CCCCC(CCCC=C)(N[*:1])C(=O)[*:2]; SeN = (S)-5-(((allyloxy)carbonyl)(methyl)amino)-2-amino-2-methylpentanoic acid, C=CCOC(=O)N(C)CCC[C@](C)(N[*:1])C(=O)[*:2]; B5(19) = 2-amino-2-(pent-4-en-1-yl)hept-6-enoic acid (bis(4-pentenyl)glycine), C=CCCCC(CCCC=C)(N[*:1])C(=O)[*:2]; B5(14) = 2-amino-2-(pent-4-en-1-yl)hept-6-enoic acid (bis-pentenylglycine), C=CCCCC(CCCC=C)(N[*:1])C(=O)[*:2]; Phe(3,4-F2) = N[C@@H](Cc1ccc(F)c(F)c1)C(=O)O; Phe(3-Cl) = N[C@@H](Cc1cccc(Cl)c1)C(=O)O; Phe(4-Cl) = N[C@@H](Cc1ccc(Cl)cc1)C(=O)O; Phe(3-Me) = Cc1cccc(C[C@H](N)C(=O)O)c1; 2Nal = N[C@@H](Cc1ccc2ccccc2c1)C(=O)O; His(τ-Me) = Cn1cnc(C[C@H](N)C(=O)O)c1; αAllylPro = C=CC[C@@]1(C(=O)O)CCCN1; S8 = C=CCCCCCC[C@](C)(N)C(=O)O

T1: full-length beta-Catenin (Uniprot ID P35222) (Homo sapiens (Human), UniProt P35222 1-781)
T1 construct: Used full-length in the FP and AlphaScreen assays; also called B-Catenin; bCat
T1 sequence: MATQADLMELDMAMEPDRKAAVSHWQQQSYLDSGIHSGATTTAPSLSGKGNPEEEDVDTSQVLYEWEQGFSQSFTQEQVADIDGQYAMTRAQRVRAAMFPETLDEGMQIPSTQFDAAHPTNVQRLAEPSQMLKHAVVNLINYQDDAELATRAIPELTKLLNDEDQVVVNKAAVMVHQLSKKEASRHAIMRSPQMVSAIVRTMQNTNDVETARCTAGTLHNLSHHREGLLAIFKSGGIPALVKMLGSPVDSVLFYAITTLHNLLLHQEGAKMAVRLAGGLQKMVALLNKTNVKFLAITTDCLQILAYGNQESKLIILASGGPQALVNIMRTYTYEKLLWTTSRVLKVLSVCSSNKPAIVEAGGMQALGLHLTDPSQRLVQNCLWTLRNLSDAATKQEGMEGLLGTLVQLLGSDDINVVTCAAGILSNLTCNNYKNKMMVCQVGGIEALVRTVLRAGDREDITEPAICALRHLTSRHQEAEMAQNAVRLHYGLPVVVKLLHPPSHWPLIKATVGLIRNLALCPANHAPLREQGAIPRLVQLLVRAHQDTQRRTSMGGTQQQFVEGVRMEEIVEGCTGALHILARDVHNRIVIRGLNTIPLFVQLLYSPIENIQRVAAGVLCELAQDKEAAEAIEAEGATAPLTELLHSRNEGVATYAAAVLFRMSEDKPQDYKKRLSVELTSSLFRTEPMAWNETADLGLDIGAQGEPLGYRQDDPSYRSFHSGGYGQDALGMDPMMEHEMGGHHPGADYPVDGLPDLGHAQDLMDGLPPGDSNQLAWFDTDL

T2: full-length beta-Catenin (Uniprot ID P35222) (Homo sapiens (Human), UniProt P35222 1-781)
T2 construct: the AlphaScreen used a Histidine (Nickel Chelate) detection kit, so a His tag is likely but not described; also called B-Catenin; bCat
T2 sequence: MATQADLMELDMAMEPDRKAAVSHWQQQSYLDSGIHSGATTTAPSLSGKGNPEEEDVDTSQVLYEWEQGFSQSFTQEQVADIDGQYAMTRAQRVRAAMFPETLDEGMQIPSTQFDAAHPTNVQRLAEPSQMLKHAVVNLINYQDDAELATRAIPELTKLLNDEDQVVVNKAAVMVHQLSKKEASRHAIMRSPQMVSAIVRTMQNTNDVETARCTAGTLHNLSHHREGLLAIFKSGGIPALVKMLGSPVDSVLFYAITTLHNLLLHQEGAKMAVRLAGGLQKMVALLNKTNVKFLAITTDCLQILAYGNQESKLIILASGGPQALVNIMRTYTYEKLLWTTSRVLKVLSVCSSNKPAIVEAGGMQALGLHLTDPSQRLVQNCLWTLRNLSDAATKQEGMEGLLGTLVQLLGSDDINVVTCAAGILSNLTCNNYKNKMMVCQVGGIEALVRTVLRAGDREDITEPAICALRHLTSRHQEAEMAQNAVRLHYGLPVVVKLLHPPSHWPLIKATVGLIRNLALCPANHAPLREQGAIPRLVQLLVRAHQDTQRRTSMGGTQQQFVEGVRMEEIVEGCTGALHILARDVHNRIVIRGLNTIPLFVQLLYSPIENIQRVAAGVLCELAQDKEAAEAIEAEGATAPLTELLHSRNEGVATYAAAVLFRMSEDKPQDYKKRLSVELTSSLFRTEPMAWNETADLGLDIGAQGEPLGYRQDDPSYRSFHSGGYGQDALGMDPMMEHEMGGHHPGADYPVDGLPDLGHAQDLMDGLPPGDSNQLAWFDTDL


Assays:
[1] = biological target: T1, full-length beta-Catenin (Uniprot ID …); test: fluorescence polarization competition; full-length beta-catenin + 5FAM-TCF4(10-53) probe as competitor; peptide titrated
Experimental: (§1) The plate was incubated protected from light for 60 minutes at 20° C. prior to read. Reads were performed on a CLARIOstar plate reader (BMG Labtech) in duplicate, and data were fitted to a 1:1 binding model with hill slope using an in-house script. All provided concentrations are final concentrations.

[2] = biological target: T1, full-length beta-Catenin (Uniprot ID …); test: AlphaScreen (nickel chelate) competition; full-length beta-catenin + biotin-TCF4(10-53) probe as competitor; peptide titrated
Experimental: as §1, with “Equal volume of the titrated peptide was added to the” for “The”, “and” for “was”, “incubated for 15 minutes at 20° C. Then 4 uL of donor and 4 uL acceptor beads at 10 ug/mL were added to the plate, for a 16 uL reaction pool and” for “incubated”

[3] = biological target: T2, full-length beta-Catenin (Uniprot ID …); test: FP competition vs 5FAM-TCF4(10-53) probe on full-length beta-catenin
Experimental: as §1

| Binder | EC50 [1] | EC50 [2] | EC50 [3] |
| --- | --- | --- | --- |
| XDAXDEAAFQXFWH (not fully specified; As printed: Ac-PL3-Asp-Ala-B5-Asp-Glu-Ala-Ala-Phe-Gln-S8-Phe-Trp-His-NH2. N-terminal Ac; C-terminal amide; PL3 (1), B5 (4), S8 (11) stapled by olefin metathesis (PL3-B5 and B5-S8), Stapled peptide composition) [I-179] | 1.63 µM | 0.152 µM | – |
| Ac-[αAllylPro]DA[B5(4)]DEAA[Phe(3,4-F2)]V[S8]F[2Nal]Q-NH2 (staple 1-4, 4-11, Stapled peptide composition) [I-184] | 3.11 µM | 0.628 µM | – |
| XDAXDEAAFAXFWA (not fully specified; As printed: Ac-PL3-Asp-Ala-B5-Asp-Glu-Ala-Ala-Phe-Ala-S8-Phe-Trp-Ala-NH2. N-terminal Ac; C-terminal amide; PL3 (1), B5 (4), S8 (11) stapled by olefin metathesis (PL3-B5 and B5-S8), Stapled peptide composition; this is the earlier-eluting isomer composition) [I-186] | 5 µM | 0.518 µM | – |
| Ac-[αAllylPro]DI[B5(5)]DDAAFQ[SeN]FWH-NH2 (staple 1-4, 4-11; not fully specified; printed as Ac-PL3-Asp-Ile-B5-Asp-Asp-Ala-Ala-Phe-Gln-SeN-Phe-Trp-His-NH2, Stapled peptide composition) [I-189] | 1.6 µM | 0.156 µM | – |
| Ac-[αAllylPro]DA[B5(4)]DEAA[Phe(3-Me)]V[S8]FWQ-NH2 (staple 1-4, 4-11, Stapled peptide composition) [I-208] | 1.75 µM | 0.143 µM | – |
| Ac-[αAllylPro]DA[B5(4)]DDAA[Phe(4-Cl)]V[S8]FWQ-NH2 (staple 1-4, 4-11; not fully specified; printed as Ac-PL3-Asp-Ala-B5-Asp-Asp-Ala-Ala-4C1F-Val-S8-Phe-Trp-Gln-NH2, Ac-PL3-Asp-Ala-B5-Asp-Asp-Ala-Ala-4C1F-Val-S8-Phe-Trp-Gln-NH2; stapled peptide composition) [I-308] | – | – | 5 µM |
| Ac-[αAllylPro]DI[B5(5)]DEAAFV[S8]FWH-NH2 (staple 1-4, 4-11, Stapled peptide composition) [I-177] | 1.99 µM | 0.549 µM | – |
| Ac-[αAllylPro]DA[B5(4)]DDAA[Phe(3-Cl)]V[S8]FWQ-NH2 (staple 1-4, 4-11, Ac-PL3-Asp-Ala-B5-Asp-Asp-Ala-Ala-3C1F-Val-S8-Phe-Trp-Gln-NH2; stapled peptide composition) [I-306] | – | – | 5 µM |
| Ac-[αAllylPro]DA[B5(4)]DHAAFV[S8]FWQ-NH2 (staple 1-4, 4-11, Ac-PL3-Asp-Ala-B5-Asp-His-Ala-Ala-Phe-Val-S8-Phe-Trp-Gln-NH2; stapled peptide composition) [I-305] | – | – | 3.98 µM |
| Ac-[αAllylPro]DA[B5(4)]DDAA[His(τ-Me)]V[S8]FWQ-NH2 (staple 1-4, 4-11, Ac-PL3-Asp-Ala-B5-Asp-Asp-Ala-Ala-1meH-Val-S8-Phe-Trp-Gln-NH2; stapled peptide composition) [I-330] | – | – | 5 µM |
| Ac-[αAllylPro]DA[B5(14)]DDAAHV[S8]FWQ-NH2 (staple 1-4, 4-11; not fully specified (residue 9), Ac-PL3-Asp-Ala-B5-Asp-Asp-Ala-Ala-3meH-Val-S8-Phe-Trp-Gln-NH2; stapled peptide composition) [I-331] | – | – | 5 µM |
| Ac-[αAllylPro]DA[B5(4)]DHAAFV[S8]FWQ-NH2 (staple 1-4, 4-11, Ac-PL3-Asp-Ala-B5-Asp-His-Ala-Ala-Phe-Val-S8-Phe-Trp-Gln-NH2; stapled peptide composition) [I-304] | – | – | 5 µM |
| Ac-[αAllylPro]DA[B5(4)]DDAA[His(τ-Me)]V[S8]FWQ-NH2 (staple 1-4, 4-11; not fully specified; printed as Ac-PL3-Asp-Ala-B5-Asp-Asp-Ala-Ala-1meH-Val-S8-Phe-Trp-Gln-NH2, Ac-PL3-Asp-Ala-B5-Asp-Asp-Ala-Ala-1meH-Val-S8-Phe-Trp-Gln-NH2; stapled peptide composition) [I-329] | – | – | 5 µM |
| Ac-[αAllylPro]DI[B5(5)]DDAAFQ[SeN]FWH-NH2 (staple 1-4, 4-11; not fully specified; printed as Ac-PL3-Asp-Ile-B5-Asp-Asp-Ala-Ala-Phe-Gln-SeN-Phe-Trp-His-NH2, Stapled peptide composition) [I-190] | 0.696 µM | 0.094 µM | – |
| XDIXDEAAFQXFWQ (not fully specified; As printed: Ac-PL3-Asp-Ile-B5-Asp-Glu-Ala-Ala-Phe-Gln-S8-Phe-Trp-Gln-NH2. N-terminal Ac; C-terminal amide; PL3 (1), B5 (4), S8 (11) stapled by olefin metathesis (PL3-B5 and B5-S8), Stapled peptide composition; this is the earlier-eluting isomer composition) [I-180] | 0.561 µM | 0.088 µM | – |
| Ac-[αAllylPro]DI[B5(19)]DEAAFQ[S8]FWA-NH2 (staple 1-4, 4-11, Stapled peptide composition) [I-194] | 1.01 µM | 0.105 µM | – |
